Test results reported in patent US20100298220A1.

Target: FGF receptor (on NIH 3T3 fibroblasts)
Assay: cell-based or functional assay

Substance | EC50 of mitogenic activity, NIH 3T3 fibroblast proliferation, in the absence of heparin [ng/mL] | EC50 of mitogenic activity, NIH 3T3 fibroblast proliferation, in the presence of 10 U/ml heparin [ng/mL] | fold increase in mitogenic activity relative to wild-type FGF-1, in the absence of added heparin [fold]
wild-type human FGF-1, 140 amino acid form, with an additional amino-terminal six His tag (from UniProt P05230 16-155) (ligand) | 58.4 | 0.48 | 
Ala66→Cys mutant of human FGF-1 (140 amino acid form, His-tagged), oxidized form (from UniProt P05230 16-155) (ligand) | 5.43 | 0.36 | 10
